Holding throughout (test): ELISA, lysate on plate-bound antigen
In assay [1] the target is human serum albumin (human) (UniProt P02768).
Assay [2] has as its target unrelated Fc-fused recombinant protein.
Assay [3] concerns the target T1, recombinant biotinylated PD-L1 (rhPD-L1/Fc Chimera, R&D Systems 156-B7) (human, UniProt Q9NZQ7 19-238, biotinylated (sites not given)).
T1 construct: Bought Fc chimera; also called human PD-L1
The method, boiled down: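 On streptavidin plates coated with biotinylated PD-L1 (unrelated Fc-fusion protein and HSA as negative controls), diluted lysate was applied for 1 h. Bound FN3 domains detected with HRP-conjugated anti-FN3 antibody and POD substrate.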

Assay [4] concerns the target unrelated Fc-fused recombinant protein. The source holds these as a separate data set.

Read-outs that look alike come from different tables or passages of the source.

human serum albumin (human), sequence (P02768 25-609 limits assumed): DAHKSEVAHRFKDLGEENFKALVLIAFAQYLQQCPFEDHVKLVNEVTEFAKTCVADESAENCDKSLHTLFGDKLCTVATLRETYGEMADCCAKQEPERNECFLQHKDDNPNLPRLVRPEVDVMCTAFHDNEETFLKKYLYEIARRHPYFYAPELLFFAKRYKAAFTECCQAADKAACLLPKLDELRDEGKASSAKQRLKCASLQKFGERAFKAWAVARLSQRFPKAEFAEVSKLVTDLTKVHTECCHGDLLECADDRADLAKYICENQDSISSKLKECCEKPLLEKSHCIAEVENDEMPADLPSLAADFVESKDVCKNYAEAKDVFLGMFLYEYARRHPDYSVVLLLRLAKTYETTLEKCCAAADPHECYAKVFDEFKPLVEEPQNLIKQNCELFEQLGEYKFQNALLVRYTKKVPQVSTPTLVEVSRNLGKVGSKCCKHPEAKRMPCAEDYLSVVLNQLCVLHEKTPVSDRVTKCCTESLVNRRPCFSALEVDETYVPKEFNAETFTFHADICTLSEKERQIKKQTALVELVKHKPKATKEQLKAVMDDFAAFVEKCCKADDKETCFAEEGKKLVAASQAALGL
T1 sequence (Q9NZQ7 19-238, change not shown): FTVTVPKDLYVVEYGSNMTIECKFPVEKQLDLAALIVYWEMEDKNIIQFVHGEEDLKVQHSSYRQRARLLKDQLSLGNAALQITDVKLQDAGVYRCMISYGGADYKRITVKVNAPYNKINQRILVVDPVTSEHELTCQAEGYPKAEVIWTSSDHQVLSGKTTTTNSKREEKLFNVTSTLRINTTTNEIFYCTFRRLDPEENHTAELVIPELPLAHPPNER

B1: ISOP121BR5P1E9 (designed binder, not shown: small tags and cut ends)
chain: LPAPKNLVVSRVTEDSARLSWDSYRDYFDSFLIQYQESEKVGEAIVLTVPGSERSYDLTGLKPGTEYTVSIYGVYSRKHVVFVQSNPLSAIFTT
notes: FN3 domain; E. coli lysate in the ELISA
Take B1: the ELISA HSA (RSU) in assay [1] was 800 RSU. For the same molecule, the ELISA Fc Control (RSU) in assay [2] turned out to be 960 RSU. The “ELISA PD-L1 Fc (RSU)” value in assay [3] turned out to be 42000 RSU.

B2: ISOP121BR5P1C3 (designed binder, not shown: small tags and cut ends)
chain: LPAPKNLVVSRVTEDSARLSWASARDYFDSFLIQYQESEKVGEAIVLTVPGSERSYDLTGLKPGTEYTVSIYGVLAIAQITHWFSNPLSAIFTT
notes: as for B1
In the case of B2, the ELISA HSA (RSU) in assay [1] was found to be 480 RSU. Besides, the ELISA Fc Control (RSU) in assay [2] was found to be 640 RSU. Besides, the “ELISA PD-L1 Fc (RSU)” value in assay [3] was 177000 RSU.

B3: ISOP121BR5P1E2 (designed binder, not shown: small tags and cut ends)
chain: LPAPKNLVVSRVTEDSARLSWWFPLEWFDSFLIQYQESEKVGEAIVLTVPGSERSYDLTGLKPGTEYTVSIYGVYTREHKSVWASNPLSAIFTT
notes: as for B1
As for B3, in assay [1], the ELISA HSA (RSU) came to 720 RSU. The ELISA Fc Control (RSU) in assay [2] was found to be 800 RSU. Also, the “ELISA PD-L1 Fc (RSU)” value in assay [3] came to 137000 RSU.

B4: ISOP121FR5P1G11 (designed binder, not shown: small tags and cut ends)
chain: LPAPKNLVVSRVTEDSARLSWTAPDAAFDSFSIWYLEIVAHGEAIVLTVPGSERSYDLTGLKPGTEYEVIIHGVKGCGPSGPLSAIFTT
notes: as for B1
In assay [1], B4 gave an ELISA HSA (RSU) of 480 RSU. Further, in assay [2], the ELISA Fc Control (RSU) is 880 RSU. In assay [3], the “ELISA PD-L1 Fc (RSU)” value was found to be 18600 RSU.

B5: ISOP121BR5P1H6 (designed binder, not shown: small tags and cut ends)
chain: LPAPKNLVVSRVTEDSARLSWGYIDVSYFDSFLIQYQESEKVGEAIVLTVPGSERSYDLTGLKPGTEYTVSIYGVYSRPKAEFTSNPLSAIFTT
notes: as for B1
In assay [1], B5 yielded an ELISA HSA (RSU) of 1040 RSU. The ELISA Fc Control (RSU) in assay [2] came out at 1440 RSU. Moreover, the “ELISA PD-L1 Fc (RSU)” value in assay [3] was 74600 RSU.

B6: ISOP121BR5P1A6 (designed binder, not shown: small tags and cut ends)
chain: LPAPKNLVVSRVTEDSARLSWASWLVAFFDSFLIQYQESEKVGEAIVLTVPGSERSYDLTGLKPGTEYTVSIYGVYQRHASAFVSNPLSAIFTT
notes: as for B1
As to B6, the ELISA HSA (RSU) in assay [1] was 720 RSU. Also, the ELISA Fc Control (RSU) in assay [2] was found to be 720 RSU. Further, the “ELISA PD-L1 Fc (RSU)” value in assay [3] came out at 11000 RSU.

B7: ISOP194AR9P1H10 (designed binder, not shown: small tags and cut ends)
chain: LPAPKNLVISRVTEDSARLSWPAHYHSAFFDSFLIQYQESEKVGEAIVLTVPGSERSYDLTGLKPGTEYTVSIYGVYQRKVEFHSNPLSAIFTT
notes: as for B1
For the molecule B7, the ELISA Fc Control (RSU) in assay [4] stood at 4400 RSU. Also, in assay [3], the “ELISA PD-L1 Fc (RSU)” value amounted to 5.21e+06 RSU.

B8: ISOP121AR5P1E7 (designed binder, not shown: small tags and cut ends)
chain: LPAPKNLVVSRVTEDSARLSWHVYHEIDYFDSFLIQYQESEKVGEAIVLTVPGSERSYDLTGLKPGTEYTVSIYGVYQRKVEFYSNPLSAIFTT
notes: as for B1
For B8, in assay [1], the ELISA HSA (RSU) was found to be 6560 RSU. Further, in assay [2], the ELISA Fc Control (RSU) was 4240 RSU. Also, the “ELISA PD-L1 Fc (RSU)” value in assay [3] is 327000 RSU.

B9: ISOP121BR5P1F7 (designed binder, not shown: small tags and cut ends)
chain: LPAPKNLVVSRVTEDSARLSWHDATWQYFDSFLIQYQESEKVGEAIVLTVPGSERSYDLTGLKPGTEYTVSIYGVFHRKHIDFVSNPLSAIFTT
notes: as for B1
B9 showed an ELISA HSA (RSU) in assay [1] of 880 RSU. The ELISA Fc Control (RSU) in assay [2] worked out at 720 RSU. Moreover, the “ELISA PD-L1 Fc (RSU)” value in assay [3] is 12900 RSU.

B10: ISOP121AR5P1F3 (designed binder, not shown: small tags and cut ends)
chain: LPAPKNLVVSRVTEDSARLSWPFNNYSEHFDSFLIQYQESEKVGEAIVLTVPGSERSYDLTGLKPGTEYTVSIYGVYERKTAFYSNPLSAIFTT
notes: as for B1
Turning to B10, the ELISA HSA (RSU) in assay [1] is 960 RSU. Besides, in assay [2], the ELISA Fc Control (RSU) worked out at 800 RSU. The “ELISA PD-L1 Fc (RSU)” value in assay [3] was determined as 180000 RSU.

B11: ISOP121AR5P1H5 (designed binder, not shown: small tags and cut ends)
chain: LPAPKNLVVSRVTEDSARLSWEDAVKHIWFDSFLIQYQESEKVGEAIVLTVPGSERSYDLTGLKPGTEYTVSIYGVWIASVWRSNPLSAIFTT
notes: as for B1
Take B11: the ELISA HSA (RSU) in assay [1] was determined as 1120 RSU. Besides, the ELISA Fc Control (RSU) in assay [2] was determined as 960 RSU. The “ELISA PD-L1 Fc (RSU)” value in assay [3] came out at 171000 RSU.

B12: ISOP121AR5P1G10 (designed binder, not shown: small tags and cut ends)
chain: LPAPKNLVVSRVTEDSARLSWEWLEHFDSFLIQYQESEKVGEAIVLTVPGSERSYDLTGLKPGTEYTVSIYGVYQRKVEFHSNPLSAIFTTT
notes: as for B1
The molecule B12 showed an ELISA HSA (RSU) in assay [1] of 1280 RSU. Further, the ELISA Fc Control (RSU) in assay [2] amounted to 1360 RSU. The “ELISA PD-L1 Fc (RSU)” value in assay [3] turned out to be 232000 RSU.

B13: ISOP121AR5P1F7 (designed binder, not shown: small tags and cut ends)
chain: LPAPKNLVVSRVTEDSARLSWQEHWDTSSNFDSFLIQYQESEKVGEAIVLTVPGSERSYDLTGLKPGTEYTISIYGVYNRKVLFYSNPLSAIFTT
notes: as for B1
B13 came in with an ELISA HSA (RSU) in assay [1] of 1040 RSU. Also, the ELISA Fc Control (RSU) in assay [2] came to 720 RSU. In addition, the “ELISA PD-L1 Fc (RSU)” value in assay [3] is 64000 RSU.

B14: ISOP194BR9P1A9 (designed binder, not shown: small tags and cut ends)
chain: LPAPKNLVVSRVTEDSARLSWFNADEEYFDSFLIQYQESEKVGEAIVLTVPGSERSYDLTGLKPGTEYTVSIYGVYDRKVKFVQSNPLSAIFTT
notes: as for B1
Regarding B14, the ELISA Fc Control (RSU) in assay [4] worked out at 2320 RSU. Also, the “ELISA PD-L1 Fc (RSU)” value in assay [3] is 1.9e+07 RSU.

B15: ISOP121BR5P1D1 (designed binder, not shown: small tags and cut ends)
chain: LPAPKNLVVSRVTEDSARLSWKWGGEFFDSFLIQYQESEKVGEAIVLTVPGSERSYDLTGLKPGTEYTVSIYGVYQRNWHHWYSNPLSAIFTT
notes: as for B1
For B15, the ELISA HSA (RSU) in assay [1] amounted to 960 RSU. Also, the ELISA Fc Control (RSU) in assay [2] is 1040 RSU. In addition, the “ELISA PD-L1 Fc (RSU)” value in assay [3] amounted to 186000 RSU.

B16: ISOP121GR5P1A2 (designed binder, not shown: small tags and cut ends)
chain: LPAPKNLVVSRVTEDSARLSWTAPDAAFDSFKIQYIERYIPGEAIQLNVPGSERSYDLTGLKPGTEYSVIIPGVKGGRNSFPLWAWFTT
notes: as for B1
Regarding B16, the ELISA HSA (RSU) in assay [1] was 720 RSU. For the same molecule, in assay [2], the ELISA Fc Control (RSU) is 720 RSU. In addition, the “ELISA PD-L1 Fc (RSU)” value in assay [3] amounted to 61700 RSU.

B17: ISOP121BR5P1C9 (designed binder, not shown: small tags and cut ends)
chain: LPAPKNLVVSRVTEDSARLSWIWPDKHEFFDSFLIQYQESEKVGEAIVLTVPGSERSYDLTGLKPGTEYTVSIYGVYDRKYANWSSNPLSAIFTT
notes: as for B1
For B17, the ELISA HSA (RSU) in assay [1] was determined as 1040 RSU. The ELISA Fc Control (RSU) in assay [2] stood at 1120 RSU. Further, in assay [3], the “ELISA PD-L1 Fc (RSU)” value worked out at 226000 RSU.

B18: ISOP121HR5P1H2 (designed binder, not shown: small tags and cut ends)
chain: LPAPKNLVVSRVTEDSARLSWTAPDAAFDSFDIYYLEYDYSGEAIVLTVPGSERSYDLTGLKPGTEYDVLIIGVKGGSLSTPLSAIFTT
notes: as for B1
In the case of B18, in assay [1], the ELISA HSA (RSU) was 560 RSU. Further, in assay [2], the ELISA Fc Control (RSU) amounted to 720 RSU. Also, the “ELISA PD-L1 Fc (RSU)” value in assay [3] was found to be 21000 RSU.

B19: ISOP121GR5P1F6 (designed binder, not shown: small tags and cut ends)
chain: LPAPKNLVVSRVTEDSARLSWTAPDAAFDSFDIRYHEYTWPGEAIVLLVPGSERSYDLTGLKPGTEYGVYINGVKGGFRSKPLFAWFTTGG
notes: as for B1
In the case of B19, the ELISA HSA (RSU) in assay [1] turned out to be 640 RSU. In addition, the ELISA Fc Control (RSU) in assay [2] was found to be 640 RSU. The “ELISA PD-L1 Fc (RSU)” value in assay [3] is 32100 RSU.

B20: ISOP121GR5P1G11 (designed binder, not shown: small tags and cut ends)
chain: LPAPKNLVVSRVTEDSARLSWTAPDAAFDSFQINYHEYGQNGEAIQLIVPGSERSYDLTGLKPGTEYGVWIWGVKGGIRSKPLWAFFTT
notes: as for B1
For B20, the ELISA HSA (RSU) in assay [1] was 1040 RSU. The ELISA Fc Control (RSU) in assay [2] came out at 960 RSU. Besides, the “ELISA PD-L1 Fc (RSU)” value in assay [3] is 240000 RSU.

B21: ISOP121ER5P1E7 (designed binder, not shown: small tags and cut ends)
chain: LPAPKNLVVSRVTEDSARLSWTAPDAAFDSFTIGYTETPPRGEAIVLTVPGSERSYDLTGLKPGTKYYVSILGVKGGLGSWPLSAIFTT
notes: as for B1
Molecule B21 had an ELISA HSA (RSU) in assay [1] of 560 RSU. The ELISA Fc Control (RSU) in assay [2] was 480 RSU. For the same molecule, in assay [3], the “ELISA PD-L1 Fc (RSU)” value came out at 251000 RSU.

B22: ISOP121BR5P1G2 (designed binder, not shown: small tags and cut ends)
chain: LPAPKNLVVSRVTEDSARLSWADELHHANHFDSFLIQYQESEKVGEAIVLTVPGSERSYDLTGLKPGTEYTVSIYGVYDRHYEIHFYSNPLSAIFTT
notes: as for B1
In assay [1], B22 showed an ELISA HSA (RSU) of 560 RSU. Further, the ELISA Fc Control (RSU) in assay [2] was 800 RSU. Besides, in assay [3], the “ELISA PD-L1 Fc (RSU)” value came out at 16700 RSU.

Values taken from patent US20180162928A1 (Janssen / Centocor, published 2018).
